Source: US20250242021A1 (BLUESPHERE BIO, published 2025)

Target: HA-1 “H” peptide (…) presented on LCL222 cells (H/H)
Experiment: cell-based or functional assay

B1: anti-HA-1 “H” epitope TCR (TCR, V domains shown)
V domain 1: AQSVAQPEDQVNVAEGNPLTVKCTYSVSGNPYLFWYVQYPNRGLQFLLKYITGDNLVKGSYGFEAEFNKSQTSFHLKKPSALVSDSALYFCAVRAPTSGTYKYIFGTGTRLKVLA
V domain 2: GVSQDPRHKITKRGQNVTFRCDPISEHNRLYWYRQTLGQGPEFLTYFQNEAQLEKSRLLSDRFSAERPKGSFSTLEIQRTEQGDSAMYLCASSLVSGNEQFFGPGTRLTVLE
Q: How did the “E:T ratio at which target cells were almost undetectable, cytotoxicity killing assay” value turn out when B1 was run?
A: 1.38 E:T ratio

Q: What about the “EC50, cytotoxicity killing assay (E:T ratio)” value of the same binder?
A: 0.49 E:T ratio
